T1: PPARγ2 (Homo sapiens, UniProt P37231)
T1 sequence (P37231 1-505): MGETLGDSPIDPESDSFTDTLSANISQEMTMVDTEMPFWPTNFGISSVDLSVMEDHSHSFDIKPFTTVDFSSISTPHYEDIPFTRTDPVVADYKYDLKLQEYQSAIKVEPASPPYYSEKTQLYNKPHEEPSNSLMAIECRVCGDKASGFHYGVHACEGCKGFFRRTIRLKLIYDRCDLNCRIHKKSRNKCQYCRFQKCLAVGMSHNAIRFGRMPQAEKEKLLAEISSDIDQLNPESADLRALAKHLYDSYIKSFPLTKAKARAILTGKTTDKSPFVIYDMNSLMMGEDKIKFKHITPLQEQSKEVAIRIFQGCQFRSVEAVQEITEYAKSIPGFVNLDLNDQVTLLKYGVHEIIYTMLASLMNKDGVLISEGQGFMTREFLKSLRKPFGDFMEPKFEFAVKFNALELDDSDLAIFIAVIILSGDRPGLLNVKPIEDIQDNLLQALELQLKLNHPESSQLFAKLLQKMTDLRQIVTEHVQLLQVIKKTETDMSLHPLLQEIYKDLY

B1: N domains of sLZIP: N-terminal deletion mutant of sLZIP, residues 1-228 (protein)
chain: MELELDAGDQDLLAFLLEESGDLGTAPDEAVRAPLDWALPLSEVPSDWEVDDLLCSLLSPPASLNILSSSNPCLVHHDHTYSLPRETVSMDLESESCRKEGTQMTPQHMEELAEQEIARLVLTDEEKSLLEKEGLILPETLPLTKTEEQILKRVRRKIRNKRSAQESRRKKKVYVGGLESRVLKYTAQNMELQNKVQLLEEQNLSLLDQLRKLQAMVIEISNKTSSSS
modifications: left off: a dimerising Fc or GST
B2: sLZIP: human small leucine-zipper protein, isoform of LZIP, 354 amino acids, no transmembrane domain; GenBank FJ263669, SEQ ID NO: 1 (protein, listed as Homo sapiens)
chain: MELELDAGDQDLLAFLLEESGDLGTAPDEAVRAPLDWALPLSEVPSDWEVDDLLCSLLSPPASLNILSSSNPCLVHHDHTYSLPRETVSMDLESESCRKEGTQMTPQHMEELAEQEIARLVLTDEEKSLLEKEGLILPETLPLTKTEEQILKRVRRKIRNKRSAQESRRKKKVYVGGLESRVLKYTAQNMELQNKVQLLEEQNLSLLDQLRKLQAMVIEISNKTSSSSMYSSDTRGSLPAEHGVLSRQLRALPSEDPYQLELPALQSEVPKDSTHQWLDGSDCVLQAPGNTSCLLHYMPQAPSAEPPLEWPFPDLFSEPLCRGPILPLQANLTRKGGWLPTGSPSVILQDRYSG

How the values were obtained:
PPARγ2 [1] = assay: GST pull-down / immunoprecipitation of sLZIP and PPARγ2 in transfected 293T cells; format: binding
Experimental: 293T cells were obtained and washed with cold PBS. The cells were re-suspended in an IP lysis buffer [25 mM of Tris-HCl (pH 7.4), 150 mM of NaCl, 1 mM of EDTA, 1% NP-40 and 5% glycerol, and a protease inhibitor]. A suspension was centrifuged at 16,000×g for 20 minutes at 4° C. Supernatants were collected and incubated with 0.5 μg of appropriate antibodies and 25 μl of protein A/G-agarose or a GST Sepharose 4B bead for 24 hours at 4° C. A protein complex was centrifuged at 1,000×g with a cold IP lysis buffer for 1 minute and washed five times. The final pellet was re-suspended in 50 μl of an SDS-sample buffer containing 5% β-mercaptoethanol and heated for 10 minutes at 100° C. A protein sample was isolated in SDS-PAGE (8 to 10%) and transferred to nitrocellulose membranes. Co-precipitated proteins were detected according to western blotting using specific antibodies.
(§1) In order to examine whether the transcriptional activity of PPARγ2 is regulated by interaction with sLZIP, interaction between sLZIP and PPARγ2 was examined. For this purpose, 293T cells were transfected with GST-sLZIP and Myc-PPARγ2. Cell lysates were obtained and GST pull-down analysis was performed using a glutathione 4B bead. A protein complex was analyzed in SDS-PAGE and then immunoblotted with specific antibodies (FIG. 2A). The 293T cells were transfected with GST-PPARγ2 and Flag-sLZIP, and identified according to GST-pull-down analysis (FIG. 2B). PPARγ2 was translated in vitro by a TNT translation system (Promega). His-sLZIP proteins were expressed in BL21 cells using an IPTG-inducement system. Purified His-sLZIP proteins were subjected to His pull-down analysis. Proteins bound to the bead were analyzed in SDS-PAGE, and then immunoblotted with anti-PPARγ2 and anti-His antibodies (FIG. 2C). GFP-PPARγ2 and Flag-sLZIP constructs were expressed in C3H10T1/2 cells, and analyzed using mouse anti-Flag and Texas Red-labeled anti-mouse antibodies under a fluorescence microscope. The nucleus was stained with DAPI (FIG. 2D).
Activation of many nuclear receptors depends on a supplement of coactivators. Therefore, a domain of sLZIP necessary for binding with PPARγ2 was examined. For this purpose, 293T cells were transfected with GST-full length sLZIP (1-354), N-terminal deletion mutant sLZIP (1-228), C-terminal deletion mutant sLZIP (229-354), CC-terminal deletion mutant sLZIP (297-354) and PPARγ2. Cell lysates were obtained and GST pull-down analysis was performed using a glutathione 4B bead. A protein complex was analyzed in SDS-PAGE, and then immunoblotted with specific antibodies (FIG. 3A). 293T cells were transfected with Flag-full length PPARγ2, full length PPARγ2, N-terminal deletion mutant PPARγ2 (1-310), C-terminal deletion mutants PPARγ2 (139-505) and GST-sLZIP. Cell lysates were obtained and GST pull-down analysis was performed. A protein complex was analyzed in SDS-PAGE, and then immunoblotted with anti-GST and anti-Flag antibodies (FIG. 3B).
For this purpose, 293T cells were transfected with GST-PPARγ2 and Flag-sLZIP and were treated or not treated with 10 nM of RZD for 24 hours. Cell lysates were obtained and GST pull-down analysis (FIG. 5A) and immunoprecipitation (FIG. 5B) were performed using a glutathione 4B bead. A protein complex was analyzed in SDS-PAGE, and immunoblotted with anti-GST and anti-Flag antibodies. GST-PARγ2 and Flag-sLZIP were expressed in the 293T cells, and the cells were treated with 10 nM of RZD according to time of day. The cell lysates were GST pull-down analyzed (FIG. 5C). 293T cells were transfected with GST-HDAC3 and Flag-sLZIP, and treated or not treated with 10 nM of RZD for 24 hours. The cell lysates were GST pull-down analyzed (FIG. 5D). Flag-sLZIP was expressed in the 293T cells, and the cells were treated with 10 nM of RZD for 24 hours. Immunoprecipitation analysis of the cell lysates was performed using anti-NCoR1 antibodies. […]

PPARγ2 [2] = molecular target: T1, PPARγ2; assay: Fluorescence microscopy, subcellular localization of sLZIP and PPARγ2 in C3H10T1/2 cells; format: cell-based; conditions: GFP-PPARγ2 and Flag-sLZIP
Experimental: C3H10T1/2 cells were transiently ci-transfected with Flag-sLZIP, GFP-PPARγ2 or GFP-sLZIP, and HDAC3 was grown on cover slip. After 24 hours, the cells were fixed with 4% paraformaldehyde for 10 minutes and permeabilized 0.2% Triton-X 100 for 5 minutes. The cells were incubated with 1% BSA for one hour, and then incubated with anti-Flag and anti-HDAC3 antibodies overnight at 4° C. The cells were washed with PBS, and then were incubated with Texas Red-labeled antibodies for 2 hours. A cover slide was washed with PBS, and mounted on and examined using a LSM 510 META confocal microscopy (Carl Zeiss, Jena, Germany).
as §1, with “The 293T cells were transfected with GST-PPARγ2 and Flag-sLZIP, and identified according to GST-pull-down analysis (FIG. 2B). PPARγ2 was translated in vitro by a TNT translation system (Promega). His-sLZIP proteins were expressed in BL21 cells using an IPTG-inducement system. Purified His-sLZIP proteins were subjected to His pull-down analysis.” left out, “The nucleus was stained with DAPI (FIG. 2D).” left out

| Molecule | interaction with PPARγ2 (GST pull-down) (PPARγ2 [1]; 293T cells, no ligand) | interaction with PPARγ2 (immunoprecipitation) (PPARγ2 [1]; 293T cells expressing Flag-sLZIP and GST-PPARγ2, ligand treated) | interaction with PPARγ2 (GST pull-down) (PPARγ2 [1]; 293T cells, 10 nM RZD for 24 hours) | time dependence of interaction with PPARγ2 (GST pull-down) (PPARγ2 [1]; 293T cells, 10 nM RZD, time course) | interaction with PPARγ2 (GST pull-down) (PPARγ2 [1]; 293T cells, no ligand, listed as wild type sLZIP) | subcellular localization of sLZIP and PPARγ2 (PPARγ2 [2]) |
| --- | --- | --- | --- | --- | --- | --- |
| B1 | not interacted with PPARγ2 |  |  |  |  |  |
| B2 | PPARγ2 interacted with sLZIP | PPARγ2 was dissociated from sLZIP | dissociated from PPARγ2 | dissociated from PPARγ2 in a time-dependent manner | interacted with PPARγ2 | localized in the nucleus together with PPARγ2 |

Source: patent US10058586B2, “Use of human small leucine zipper protein in adipocyte differentiation procedure” (Korea University Research and Business Foundation, priority 2013, dated 2018)
